From the RNAGym collection of RNA variant scans (doi:10.7554/elife.90254) come the findings set out here.

The chains are these.
B1: LINE1-full (parent)
chain: UACGUAGGUGGUUUUCCCCUGAUAGUGCUAAGGGGGCCUGGAAGUUUGGACUGGGCAGAGCUCAACACAGCGUGGCAAAGUGGCUGUGGCUAGACUGCCUCUCUGGAUUCCUCGUCACUCAGCAGGGCAUCUCUGAGAGAAAUGCC

Variants of B1 are the subject of the series. Nature of the series: self-cleavage, relative activity (ratio to wild type); higher = more cleavage; in vitro, sequencing; the parent is a self-cleaving ribozyme.
Take U119C A136G: the self-cleavage turned out to be 1.98.

C131A U134C: the self-cleavage was determined as 1.53.

Take A124G G139U: the self-cleavage was 1.91.

For A121U G126A, the self-cleavage is 0.83.

For A121C A136G, the self-cleavage amounted to 1.72.

As for A129G G139A, the self-cleavage worked out at 1.43.

For the variant U132A A138G, the self-cleavage was determined as 1.39.

Regarding U130C U132C, the self-cleavage stood at 1.29.

As to A124C A129G, the self-cleavage is 0.66.

As for A124U U132C, the self-cleavage came to 1.43.

On to U119C U143C, for which the self-cleavage stood at 1.49.

With U119A G126A, the self-cleavage was 1.3.

Consider A117G A142G, for which the self-cleavage came out at 1.25.

Consider U130A A140G, for which the self-cleavage is 1.27.

On to U130A A140U, for which the self-cleavage is 1.24.

As to U130A C133U, the self-cleavage came to 2.3.

As to U119C A129U, the self-cleavage worked out at 1.82.

Take C123G C133A: the self-cleavage came to 1.46.

U130C U134C: the self-cleavage came out at 1.51.

On to U130C U134G, for which the self-cleavage turned out to be 0.54.

As for U130A A142C, the self-cleavage came to 0.79.

In the case of G127C U143C, the self-cleavage was found to be 1.61.

Turning to A117U U134A, the self-cleavage came to 1.54.

For A117U U134C, the self-cleavage is 1.52.

As for G122C A136U, the self-cleavage stood at 1.96.

In the case of A117G U143C, the self-cleavage is 1.45.

With A117G U143A, the self-cleavage turned out to be 0.83.

For the variant G122A U130C, the self-cleavage came to 1.91.

For G122A U130A, the self-cleavage turned out to be 2.13.

A121G U130C: the self-cleavage came to 1.14.

A121G U130A: the self-cleavage came out at 1.25.

For U119C A138G, the self-cleavage came to 1.84.

Turning to G126A A140U, the self-cleavage came to 1.67.

For A129C A138U, the self-cleavage was 0.57.

Turning to G122C A140G, the self-cleavage was determined as 1.36.

As for U119C G135A, the self-cleavage was determined as 2.34.

For A117G A129U, the self-cleavage is 1.29.

With A129U C131U, the self-cleavage is 1.78.

Consider C118U C131U, for which the self-cleavage came to 1.66.

In the case of U119A A141U, the self-cleavage was 1.29.

As for A121C C146U, the self-cleavage was 1.77.

Consider U119C U134A, for which the self-cleavage worked out at 1.92.

Consider A117G A121U, for which the self-cleavage is 1.86.

Regarding A117G A121G, the self-cleavage was found to be 1.38.

Turning to A117G A121C, the self-cleavage turned out to be 1.78.

For U119C A121U, the self-cleavage was 1.48.

With A124C A138C, the self-cleavage is 1.86.

Consider G127A C146U, for which the self-cleavage is 1.43.

In the case of G126A A129U, the self-cleavage turned out to be 2.47.

Regarding A124G C145A, the self-cleavage came to 1.22.

As for U119A G122C, the self-cleavage was 1.65.

As for U132A A136G, the self-cleavage stood at 1.79.

On to C120A U134C, for which the self-cleavage was 1.65.

For G127A U134G, the self-cleavage came out at 1.1.

In the case of C118G, the self-cleavage worked out at 1.27.

In the case of C118U, the self-cleavage turned out to be 1.32.

Take C118A: the self-cleavage was 1.11.

On to C128A, for which the self-cleavage is 0.7.

Consider C128U, for which the self-cleavage stood at 1.39.

With C128G, the self-cleavage was determined as 0.98.

Consider A117G C145U, for which the self-cleavage is 1.33.

Consider A124G A142U, for which the self-cleavage was 0.94.

Regarding A124G A142C, the self-cleavage turned out to be 0.58.

With A121U A138C, the self-cleavage worked out at 1.56.

With A121U A138G, the self-cleavage amounted to 1.56.

On to G127A A140G, for which the self-cleavage is 0.9.

Consider A117U C128U, for which the self-cleavage came out at 0.86.

Regarding A117U C128A, the self-cleavage was determined as 0.99.

As to U132C, the self-cleavage was determined as 1.35.

Take U132A: the self-cleavage was 1.32.

For G122U C123U, the self-cleavage was 0.8.

Take G122U U130C: the self-cleavage came out at 1.21.

For A124G G126A, the self-cleavage is 1.22.

In the case of C131U A141G, the self-cleavage is 1.51.

Take A121G U132C: the self-cleavage is 1.58.

Turning to U119A A129U, the self-cleavage was 1.37.

With U132A A140U, the self-cleavage came to 1.11.

C120U A141G: the self-cleavage worked out at 1.32.

Take G127U A141G: the self-cleavage came to 1.45.

As for G126U U134C, the self-cleavage worked out at 1.49.

Regarding G126U U134A, the self-cleavage was 0.84.

Consider G125A G144A, for which the self-cleavage is 1.33.

For A117U U143C, the self-cleavage came to 1.43.

Take A129G U143C: the self-cleavage worked out at 1.59.

For the variant A129G U143A, the self-cleavage turned out to be 1.77.

Take A124G A136U: the self-cleavage worked out at 1.3.

Take C128U U143C: the self-cleavage was determined as 1.26.

For the variant U119C G125U, the self-cleavage was 2.39.

With U130G A140G, the self-cleavage amounted to 1.1.

Turning to A124C, the self-cleavage was 1.56.

Turning to A124G, the self-cleavage turned out to be 0.98.

With A124U, the self-cleavage is 1.4.

Consider A117G U132A, for which the self-cleavage amounted to 0.59.

In the case of A117G U132C, the self-cleavage turned out to be 1.8.

With C131U U134A, the self-cleavage stood at 1.65.

As for A129C A136G, the self-cleavage came to 1.61.

Turning to A121C U134A, the self-cleavage is 0.84.

Take C128A A141G: the self-cleavage was 1.01.

C120U C123A: the self-cleavage was found to be 1.78.

In the case of U132A A142G, the self-cleavage is 1.41.

With G126A, the self-cleavage stood at 1.31.

On to G126U, for which the self-cleavage turned out to be 1.18.

Consider G126C, for which the self-cleavage was determined as 1.19.

Take A121G G122A: the self-cleavage amounted to 1.46.

Regarding A117U U132C, the self-cleavage came to 1.37.

For A117U U132G, the self-cleavage stood at 1.99.

For the variant G122U G125C, the self-cleavage was 2.14.

Consider C123A A140G, for which the self-cleavage was 1.42.

A124G C133A: the self-cleavage is 0.81.

Take A124U C133A: the self-cleavage turned out to be 1.59.

Take G122C U134C: the self-cleavage worked out at 1.68.

For the variant A124C A142G, the self-cleavage was determined as 0.53.

In the case of C131G A138G, the self-cleavage was found to be 2.49.

With A121U A142G, the self-cleavage was 1.4.

Take A121U A142U: the self-cleavage is 1.03.

For the variant U130C C145U, the self-cleavage was 1.46.

For A124U C128U, the self-cleavage was 1.21.

In the case of C120A G139U, the self-cleavage amounted to 1.59.

As to U130A A136G, the self-cleavage is 1.46.

For the variant U130A A136U, the self-cleavage worked out at 1.18.

For A124G G125U, the self-cleavage was determined as 1.27.

Turning to A124G U134A, the self-cleavage stood at 0.39.

Regarding A124G U134C, the self-cleavage was determined as 0.89.

Regarding A129G A138G, the self-cleavage was 1.44.

As to A124G A140G, the self-cleavage amounted to 0.24.

As to C123G U132C, the self-cleavage was determined as 1.43.

For the variant G126A U134C, the self-cleavage worked out at 1.58.

Turning to A121U A124C, the self-cleavage amounted to 1.14.

Regarding C120A A142G, the self-cleavage came to 0.91.

On to A129U A136G, for which the self-cleavage is 1.

In the case of A129U A136U, the self-cleavage was found to be 1.42.

For A121U, the self-cleavage amounted to 1.34.

In the case of A121G, the self-cleavage stood at 1.56.

For the variant A121C, the self-cleavage was 1.51.

For the variant C128A U134A, the self-cleavage was found to be 0.3.

As for A124U G127A, the self-cleavage was determined as 0.9.

For G125A A129C, the self-cleavage was found to be 1.36.

For U119C C146U, the self-cleavage turned out to be 1.68.

In the case of A121G U134G, the self-cleavage amounted to 1.58.

A121G U134C: the self-cleavage was 1.88.

As for A121G A138C, the self-cleavage stood at 1.71.

In the case of A121G A138U, the self-cleavage was found to be 1.59.

Take A121G A138G: the self-cleavage came to 1.86.

On to A124U C145U, for which the self-cleavage was found to be 1.27.

Regarding A121G C128U, the self-cleavage came to 1.6.

Turning to A129G A136G, the self-cleavage was 1.7.

As for A121U A129U, the self-cleavage was 1.41.

As to C131U A138U, the self-cleavage came to 1.27.

For the variant A117U A138G, the self-cleavage worked out at 1.52.

With A117U A138U, the self-cleavage is 1.16.

U119A A121U: the self-cleavage was found to be 1.67.

With C120U A142G, the self-cleavage is 1.59.

Consider C120U A142U, for which the self-cleavage came to 1.52.

Regarding A121U C131U, the self-cleavage is 0.58.

For the variant U130G, the self-cleavage amounted to 1.32.

Consider U130C, for which the self-cleavage amounted to 1.52.

Consider U130A, for which the self-cleavage worked out at 1.42.

For U119A U143C, the self-cleavage is 1.93.

Consider U119A U143G, for which the self-cleavage turned out to be 0.91.

On to C123A U134C, for which the self-cleavage stood at 1.04.

For A121G A142G, the self-cleavage stood at 1.48.

C128U A138G: the self-cleavage worked out at 1.44.

As to A124U A140G, the self-cleavage was determined as 1.5.

Regarding G125U A136U, the self-cleavage amounted to 1.8.

Regarding A124U A141G, the self-cleavage was 1.36.

A121U G122A: the self-cleavage amounted to 0.27.

C131A A142G: the self-cleavage is 0.98.
